From patent US20250262210A1 (TRUSTEES OF COLUMBIA UNIVERSITY IN THE CITY OF NEW YORK, published 2025)

Key:
Test in all cases: IP/MS, LZTR1 wild type-FLAG, U87
AP4E1 = target: T1, AP4E1 (human, UniProt Q9UPM8 1-1137, limits assumed)
T1 sequence (looked up): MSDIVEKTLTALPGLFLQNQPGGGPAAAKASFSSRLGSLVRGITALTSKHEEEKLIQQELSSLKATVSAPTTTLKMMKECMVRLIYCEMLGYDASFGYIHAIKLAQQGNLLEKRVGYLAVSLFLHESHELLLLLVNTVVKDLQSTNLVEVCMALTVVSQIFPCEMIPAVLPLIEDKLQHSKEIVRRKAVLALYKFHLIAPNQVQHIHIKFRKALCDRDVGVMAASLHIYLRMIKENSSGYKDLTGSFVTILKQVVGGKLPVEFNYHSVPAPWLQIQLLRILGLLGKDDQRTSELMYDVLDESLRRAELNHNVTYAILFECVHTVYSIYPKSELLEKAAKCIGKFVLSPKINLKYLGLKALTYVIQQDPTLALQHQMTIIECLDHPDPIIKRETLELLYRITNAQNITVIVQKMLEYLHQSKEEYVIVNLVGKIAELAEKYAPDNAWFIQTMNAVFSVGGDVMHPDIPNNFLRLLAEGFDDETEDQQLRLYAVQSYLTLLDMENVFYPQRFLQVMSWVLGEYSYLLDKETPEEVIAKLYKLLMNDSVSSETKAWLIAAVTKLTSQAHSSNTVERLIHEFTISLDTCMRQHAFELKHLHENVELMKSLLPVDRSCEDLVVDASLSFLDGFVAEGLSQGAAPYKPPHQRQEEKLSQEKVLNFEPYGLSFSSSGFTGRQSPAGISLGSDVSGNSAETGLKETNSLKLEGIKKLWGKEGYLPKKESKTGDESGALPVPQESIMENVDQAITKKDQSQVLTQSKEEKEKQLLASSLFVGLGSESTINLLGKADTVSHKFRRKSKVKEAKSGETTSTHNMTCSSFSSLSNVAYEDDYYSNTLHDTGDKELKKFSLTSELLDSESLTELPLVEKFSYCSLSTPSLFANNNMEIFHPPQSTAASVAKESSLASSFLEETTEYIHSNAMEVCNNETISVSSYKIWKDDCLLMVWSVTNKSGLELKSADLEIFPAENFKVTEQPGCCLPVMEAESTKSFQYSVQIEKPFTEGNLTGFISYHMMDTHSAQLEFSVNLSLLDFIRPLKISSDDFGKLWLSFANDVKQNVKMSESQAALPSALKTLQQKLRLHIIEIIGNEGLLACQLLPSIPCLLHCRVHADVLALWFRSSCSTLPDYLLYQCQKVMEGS
Procedure, shortened: (§1)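 Gel slices were reduced with 5 mM DTT, alkylated with 11 mM IAA and digested overnight at 37° C. with trypsin. Peptides were analysed on an Orbitrap Fusion Tribrid by LC-MS/MS.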

TTC27 = TTC27 (human, UniProt Q6P3X3 1-843)
Procedure, shortened: as §1

SMPD4 = target: T2, SMPD4 (human, UniProt Q9NXE4 1-866, limits assumed)
T2 sequence (looked up): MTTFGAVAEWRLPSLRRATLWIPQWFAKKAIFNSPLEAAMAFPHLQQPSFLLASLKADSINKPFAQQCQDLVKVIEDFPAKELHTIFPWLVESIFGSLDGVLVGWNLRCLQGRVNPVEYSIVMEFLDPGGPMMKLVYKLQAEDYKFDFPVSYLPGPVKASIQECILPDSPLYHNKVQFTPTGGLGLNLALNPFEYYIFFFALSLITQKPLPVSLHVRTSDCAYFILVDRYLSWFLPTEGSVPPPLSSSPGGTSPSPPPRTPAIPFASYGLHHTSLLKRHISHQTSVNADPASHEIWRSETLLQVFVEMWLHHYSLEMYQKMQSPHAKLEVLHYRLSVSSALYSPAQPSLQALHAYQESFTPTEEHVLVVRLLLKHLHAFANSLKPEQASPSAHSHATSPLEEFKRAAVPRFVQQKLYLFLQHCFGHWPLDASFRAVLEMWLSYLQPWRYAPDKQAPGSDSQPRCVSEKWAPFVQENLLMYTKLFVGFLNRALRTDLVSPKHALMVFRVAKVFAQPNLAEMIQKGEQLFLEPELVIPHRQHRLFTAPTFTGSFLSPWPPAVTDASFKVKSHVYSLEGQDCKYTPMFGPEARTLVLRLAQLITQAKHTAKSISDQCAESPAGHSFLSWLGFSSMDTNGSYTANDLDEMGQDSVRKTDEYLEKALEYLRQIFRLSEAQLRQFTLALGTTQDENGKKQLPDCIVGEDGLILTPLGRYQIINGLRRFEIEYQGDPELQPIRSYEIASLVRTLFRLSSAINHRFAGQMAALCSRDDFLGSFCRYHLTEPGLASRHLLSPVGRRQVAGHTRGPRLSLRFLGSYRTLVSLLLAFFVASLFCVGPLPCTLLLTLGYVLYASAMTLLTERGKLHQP
Procedure, shortened: as §1

Measured: binding result

B1: LZTR1-FLAG (other, human, UniProt Q8N653 1-840, looked up)
chain: MAGPGSTGGQIGAAALAGGARSKVAPSVDFDHSCSDSVEYLTLNFGPFETVHRWRRLPPCDEFVGARRSKHTVVAYKDAIYVFGGDNGKTMLNDLLRFDVKDCSWCRAFTTGTPPAPRYHHSAVVYGSSMFVFGGYTGDIYSNSNLKNKNDLFEYKFATGQWTEWKIEGRLPVARSAHGATVYSDKLWIFAGYDGNARLNDMWTIGLQDRELTCWEEVAQSGEIPPSCCNFPVAVCRDKMFVFSGQSGAKITNNLFQFEFKDKTWTRIPTEHLLRGSPPPPQRRYGHTMVAFDRHLYVFGGAADNTLPNELHCYDVDFQTWEVVQPSSDSEVGGAEVPERACASEEVPTLTYEERVGFKKSRDVFGLDFGTTSAKQPTQPASELPSGRLFHAAAVISDAMYIFGGTVDNNIRSGEMYRFQFSCYPKCTLHEDYGRLWESRQFCDVEFVLGEKEECVQGHVAIVTARSRWLRRKITQARERLAQKLEQEAAPVPREAPGVAAGGARPPLLHVAIREAEARPFEVLMQFLYTDKIKYPRKGHVEDVLLIMDVYKLALSFQLCRLEQLCRQYIEASVDLQNVLVVCESAARLQLSQLKEHCLNFVVKESHFNQVIMMKEFERLSSPLIVEIVRRKQQPPPRTPLDQPVDIGTSLIQDMKAYLEGAGAEFCDITLLLDGHPRPAHKAILAARSSYFEAMFRSFMPEDGQVNISIGEMVPSRQAFESMLRYIYYGEVNMPPEDSLYLFAAPYYYGFYNNRLQAYCKQNLEMNVTVQNVLQILEAADKTQALDMKRHCLHIIVHQFTKVSKLPTLRSLSQQLLLDIIDSLASHISDKQCAELGADI
notes: Expressed in HEK 293T, HeLa or U87 cells; used as cell lysate; also called LZTR1 wild type-FLAG; LZTR1 WT; not shown: FLAG tag at the C-terminus
binds: all assays above
